{
  "source": "patent US20250188151A1",
  "about": "“C-JUN ANTAGONIST PEPTIDES” (The University of Bath, priority 2022, published 2025)",
  "key": {"cJun bZIP [1]": {"target": "T1, cJun bZIP (human, UniProt P05412 252-308, limits assumed)", "T1 construct": "Purified from a His-SUMO fusion with the tag cleaved off; also called c-Jun bZIP domain; 60 amino acid c-Jun bZIP construct", "T1 chain": "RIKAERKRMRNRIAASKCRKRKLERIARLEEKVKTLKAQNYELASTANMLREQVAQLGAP", "experiment": "CD thermal denaturation, peptide 5 µM and c-Jun 5 µM"}, "cJun bZIP [2]": {"target": "T1, cJun bZIP", "experiment": "ITC (PEAQ-ITC), peptide injected into cJun, one site model"}, "cJun bZIP [3]": {"target": "cJun bZIP (Homo sapiens, UniProt P05412, S292Y)", "experiment": "CD spectra and thermal denaturation of peptide/cJun heterodimers"}, "TRE DNA": {"system": "TRE DNA", "experiment": "CD control: peptide with TRE DNA", "format": "binding", "protocol": "Circular Dichroism (CD): An Applied Photophysics Chirascan was used for CD measurements, with a 200 μL sample in a 1 mm path length CD cell. Protein/DNA samples were suspended in 150 mM potassium phosphate, 150 mM potassium fluoride and 5 mM TCEP at pH 7.4 and were equilibrated for 30 minutes before measurement. […] These scans were averaged and converted to molar residue ellipticities (MRE)."}, "cFos bZIP": {"target": "T2, cFos bZIP (human, UniProt P01100 137-193)", "T2 construct": "Purified from a His-SUMO fusion with the tag cleaved off; also called cFos bZIP domain", "T2 chain": "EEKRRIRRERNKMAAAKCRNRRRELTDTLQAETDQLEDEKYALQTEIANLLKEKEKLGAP", "experiment": "CD spectra 190-260 nm, equimolar mixture compared with the average of the 10 µM component spectra"}, "cJun bZIP [4]": {"target": "T1, cJun bZIP"}, "cJun bZIP [5]": {"target": "T1, cJun bZIP", "experiment": "cell-based or functional assay"}, "[6]": {"target": "T3, cJun bZIP/TRE DNA interaction (transcriptional block of TRE-mDHFR) (Homo sapiens, UniProt P05412, S292Y)", "T3 construct": "expressed in transfected cells; host or cells: E. coli BL21 Gold carrying pES300d-TRE-mDHFR and pES230d-cJun bZIP", "experiment": "Transcription Block Survival (TBS) assay: colony counting and growth competition in E. coli", "format": "cell-based", "text": "Library Construction and TBS Assay: Library inserts were produced using PCR fill-in reactions from synthesised primers (Sigma) with degenerate codons at the desired positions to produce the correct residue options. The library was subcloned using SacI and AscI sites into the pET24a plasmid containing A-FosW. The primers used were cJun-Hinge-Lib-F: 5′-[…] TATGCC-3′ (SEQ ID NO: 49) and cJun-Hinge-Lib_R: 5′-[…] GTTC-3′ (SEQ ID NO: 50). The library DNA was transformed into NEB 10-beta electrocompetent E. coli cells. The following equation was utilised to determine library coverage by the number of single colonies: E=100×(1−1/n)^m where E is the percentage of the library missing, m is the number of colonies collected and n is the library size. […] Library DNA quality was assessed by sequencing both the DNA pool and a number of single colonies to show degenerate codons in the correct positions in the pool and to show a diversity of library members from single colonies. The pool of library DNA was transformed into BL21 Gold cells already containing pES300d-TRE-mDHFR and pES230d-cJun bZIP.\nSelective pressure is applied by growing the bacteria in M9 minimal media with TMP (2-4 μM) alongside ampicillin, kanamycin and chloramphenicol to maintain the required plasmids, and IPTG (1 mM) to induce protein expression. The library transformants were first plated out onto selective agar plates (2 μM TMP) and grown at 37° C. for 72-96 h. Optimisation experiments (FIG. 5) indicate that 4 μM TMP is optimum for selection however a lower stringency is used initially before selection is increased in later steps. Colonies from this first round of selection were pooled and serially grown in liquid culture at starting OD600 of 0.05 and grown at 37° C. with shaking at 200 rpm until the OD600 reached 0.6. TMP concentration was 2 μM in the first liquid culture passage before it was increased to the optimum 4 μM in subsequent passages. […] At each passage step, a sample of the culture was plated on LB agar (supplemented with antibiotics to maintain plasmids) to select and sequence individual colonies, and a DNA pool was also sequenced. This allows the occurrence of library members to be monitored as winner sequences are selected for. Assay Validation experiments utilised a modified assay methodology whereby overnight cultures from glycerol stocks of the Control Strains (Table 2) were diluted to OD600=0.5 and 50 μL was plated on a selective M9 minimal medium agar plate.\nTranscription block survival (TBS) is an intracellular assay that utilises cell survival as a readout. […] This enzyme is absolutely essential for survival since it is required for the production of purines needed for DNA and amino acid synthesis. […]. We produced a mDHFR gene (FIGS. 2 and 3) by rational design to introduce 15 TRE sites into the coding DNA sequence to allow a robust cJun transcriptional block whilst minimising alteration to the expressed protein (TRE-mDHFR). In particular, the resulting TRE-mDHFR construct was produced via two silent and thirteen conservative mutations. […] The accessible surface areas of all other amino acid residues were calculated using the ‘Accessible Surface Area and Accessibility Calculation for Protein’ tool (http://cib.cf.ocha.ac.jp/bitool/ASA/). […]"}, "cJun bZIP [7]": {"target": "T1, cJun bZIP"}, "Serum stability (LC-MS)": {"experiment": "Serum stability (LC-MS)", "format": "in vitro ADME", "conditions": "human serum, 37° C.", "experimental": "Serum Stability: Peptide stocks (600 μM) were prepared in water and 50 μL added to 950 μL human serum (Merck) before incubation at 37° C. […] The supernatant was analysed by LC-MS and quantified using the sum of the two largest charge state intensities (1: 9+, 10+; 23,24: 3+, 4+)."}},
  "data": [
    {"molecule": "HingeW (Recombinant, capped (MAS at the N-terminus, GAP at the C-terminus) and C-terminally 6xHis-tagged, 69 amino acids; also called peptide 1) peptide: MASLEQRAEELARENEELEKEAEELVVEEDVLEEEIEQLEERNYALRKEIEDLQKQLEKLGAPHHHHHH", "values": [
      {"measurement": "Tm (° C.) of peptide-c-Jun heterodimer", "setting": "cJun bZIP [1]", "result": 71.2, "unit": "° C."},
      {"measurement": "-TΔS", "setting": "cJun bZIP [2]", "result": 17.6, "unit": "kcal/mol"},
      {"measurement": "Stoichiometry, n", "setting": "cJun bZIP [2]", "result": 0.93},
      {"measurement": "ΔG", "setting": "cJun bZIP [2]", "result": -13.4, "unit": "kcal/mol"},
      {"measurement": "ΔH", "setting": "cJun bZIP [2]", "result": -31, "unit": "kcal/mol"},
      {"measurement": "increase in heterodimer Tm relative to A-FosW/cJun", "setting": "cJun bZIP [3]", "result": 1.3, "unit": "°C"},
      {"measurement": "Fraction helicity at 20° C. (CD)", "setting": "cJun bZIP [3]; heterodimer with c-Jun, equimolar, 10 μM total", "result": 34.7, "unit": "%"},
      {"measurement": "Tm (° C.) (CD)", "setting": "cJun bZIP [3]; heterodimer with cJun bZIP, Example 1, listed as HingeW", "result": 71.2, "unit": "°C"},
      {"measurement": "ΔTm from component average (CD)", "setting": "cJun bZIP [3]; heterodimer with cJun vs average of component profiles, listed as HingeW", "result": "~40", "unit": "°C"},
      {"measurement": "interaction with TRE DNA", "setting": "TRE DNA", "result": "no interaction"},
      {"measurement": "binding result", "setting": "cFos bZIP", "result": "no binding (tested: 5 µM of each peptide)"},
      {"measurement": "Tm (° C.) (CD)", "setting": "cJun bZIP [4]", "result": 71.2, "unit": "° C."},
      {"measurement": "IC50, EMSA of free TRE DNA band", "setting": "cJun bZIP [5]", "result": 9.6, "unit": "µM"},
      {"measurement": "TBS assay colony numbers relative to A-FosW", "setting": "cJun bZIP [5]", "result": 10, "unit": "%"},
      {"measurement": "TBS assay colony numbers relative to TRE-mDHFR alone", "setting": "cJun bZIP [5]", "result": 66, "unit": "%"},
      {"measurement": "direct competition in liquid culture, sequence observed by DNA sequencing", "setting": "[6]; equal numbers of TBS cells with A-FosW or HingeW, after three passages", "result": "only HingeW was observed"},
      {"measurement": "effect on TRE-mDHFR transcriptional block / colony numbers", "setting": "[6]; vs transcriptionally blocked cells (TRE-mDHFR + cJun bZIP)", "result": "restore cell survival"},
      {"measurement": "increase in heterodimer Tm against A-FosW/cJun", "setting": "cJun bZIP [7]", "result": 1.3, "unit": "° C."},
      {"measurement": "peak intensities relative to starting values", "setting": "Serum stability (LC-MS); after 96 hours", "result": "no peaks corresponding to 1 are observed"},
      {"measurement": "degraded", "setting": "Serum stability (LC-MS); at 24 hours", "result": 67, "unit": "%"},
      {"measurement": "half-life", "setting": "Serum stability (LC-MS); exponential decay fit", "result": 18.9, "unit": "h"}
    ]}
  ]
}
